In patent publication US12251427B2, “Reduced oxygen carriers and their use for the treatment of carboxyhemoglobinemia” (priority 2016, dated 2025):

What was measured:
[1] = LD50 dose in mice (calculated); details: mice of approximately 25 g
[2] = rats; cited from earlier work
[3] = cited from earlier work
HbCO [4] = assay: HbCO removal in CO poisoned mice (1500 ppm CO, moderate CO poisoning model); type: in vivo; details: after 5 minutes of return to normal air, 250 μL of 8-12 mM infused
Method: FIG. 1 is a graph showing the in vivo binding of CO from hemoglobin by recombinant neuroglobin in a mouse model for moderate CO poisoning.
(§1) It was previously shown that exposure of mice to air with 1500 ppm CO gas for an average of 50 minutes caused HbCO levels to increase to 64%+/−1% (PCT Publication No. WO 2014/150413). Prior to exposure, mice were surgically instrumented with placement of femoral artery and vein catheters for blood pressure monitoring, blood sampling and infusions of either recombinant neuroglobin (rNgb), another type of CO scavenging globin protein, or PBS as a control. Mice were infused with 250 μL of 8-12 mM rNgb or PBS within 4 minutes using a Harvard infusion pump. Immediately after infusion and every 5 minutes, 5 μL of blood was collected for measurement of HbCO. […] In particular, after 5 minutes of return to normal air, the HbCO levels dropped by an average of 32.8% in the group that received rNgb versus 13.3% in the group that received PBS (FIG. 1).

[5] = rNgb found in urinary bladder after infusion; type: in vivo; details: after 60 minutes, mice sacrificed
Method: as §1

HbCO [6] = assay: In vitro model of CO poisoning: CO scavenging from HbCO / carboxylated RBCs; type: biochemical
Method: FIGS. 4A-4C are graphs showing the in vitro binding of CO from hemoglobin by wild type equine myoglobin. PBS or myoglobin (100 μL) was infused into a solution containing carboxylated red blood cells in the presence of 5 mM sodium dithionite at 37° C. Samples were taken from the reaction mixture at several time points and the RBCs were separated from the supernatant (containing the Mb) by centrifugation. The amount of HbCO/MbCO in each fraction was determined by UV-vis spectroscopy. (FIG. 4A) Carboxylated RBCs mixed with PBS. (FIG. 4B and FIG. 4C) Two sample experiments where different amounts of carboxylated RBCs were mixed with Mb. […]
Oxygenated or deoxygenated myoglobin (Mb) was prepared following the same procedure as that described for the experiments with pure Hb. In some experiments, after initiating the reaction, red cells were separated from Mb to measure absorbance spectra. […] Hb absorbance in the lysed RBC solution was measured with the Cary 50 spectrophotometer in a 1 cm path length cuvette. This cycle was repeated six times, each 1.5-5 minutes, giving six absorbance measurements of the Hb. […] The time when absorbance of hemoglobin was measured in the reaction was assumed to be the time elapsed after injection of Mb to 15 or 30 seconds after the start of centrifugation (for 30 or 60 second centrifugation durations, respectively). […]

[7] = system: mice exposed to 30,000 ppm (3%) CO gas; assay: Severe CO poisoning mouse model: survival and hemodynamics; type: in vivo; details: for effect on hemodynamic collapse (heart rate, mean arterial blood pressure) induced by CO: infusion after 4.5 minutes of 3% CO; for mortality: 3% CO 4.5 minutes
Method: To establish a model for cardiovascular and mortality end points, tracheally intubated, ventilated, anesthetized mice were exposed to 30,000 ppm (3%) CO gas, with 21% oxygen and 1.5% isoflurane for 4.5 minutes. Mice were surgically instrumented with placement of jugular venous (for infusion of drug) and carotid arterial (for blood pressure and heart rate monitoring) catheters. In this model, there was 88.2% (15/17) mortality in a group infused with 300 μL of PBS post exposure, while all mice that received an infusion of 11 mM myoglobin survived (0% mortality; n=5). Survival of mice infused with myoglobin was due to the reversal in hemodynamic collapse and bradycardia induced by CO (FIG. 5).
(§2) Tracheally intubated, ventilated, anesthetized mice were exposed to 30,000 ppm (3%) CO gas, with 21% oxygen and 1.5% isoflurane for 4.5 minutes. Mice were surgically instrumented with placement of jugular venous (for infusion of drug) and carotid arterial (for blood pressure and heart rate monitoring) catheters. In this model, all mice that received PEG-Hb (n=3) survived. The concentration infused was 10 mM at approximately 200 to 250 microliters volume.

HbCO [8] = assay: Severe CO poisoning mouse model: HbCO level by spectrometry; type: in vivo, mice; details: Example 4
Method: To establish a model for cardiovascular and mortality end points, tracheally intubated, ventilated, anesthetized mice were exposed to 30,000 ppm (3%) CO gas, with 21% oxygen and 1.5% isoflurane for 4.5 minutes. Mice were surgically instrumented with placement of jugular venous (for infusion of drug) and carotid arterial (for blood pressure and heart rate monitoring) catheters.
(§3) Through the jugular venous catheter, the HbCO level was sampled using spectrometry. […] Mouse half-life for CO is much faster than for humans.
as §2, with “In this model, all mice that received PEG-Hb (n=3) survived.” left out
as §3

[9] = Safety of oxygen carriers in healthy mice; type: in vivo
Method: Healthy mice were anesthetized with 3% isoflurane gas and myoglobin and hemoglobin were injected into the retro-orbital space. […] At 48 hours, the animals were sacrificed, their serum was analyzed for blood chemistries and whole blood was tested for complete blood count.

LV homogenate = assay: Cardiac tissue respiration, Clark-type oxygen electrode, LV homogenate; design: species or system rat; details: 0.5 equimolar, after CO gas
Method: Mitochondrial respiration was measured before and after CO gas exposure in a Clark-type oxygen electrode respirometry system. The effects of infusion of both reduced hemoglobin and myoglobin were evaluated. Fresh liver was collected from a normal rat, and mitochondria were isolated through differential centrifugation. For left ventricle (LV) tissue, fresh LV was collected from a normal rat and then homogenized. The resulting mitochondria and LV tissue was put into the Clark-type electrode air tight reaction chamber, then substrates (succinate (mitochondria) or malate and pyruvate (LV) and ADP) were added. Mitochondria respired to 0% oxygen and then the system was reoxygenated with a pipetted injection of room air. Mitochondria respired back down to the desired 02 concentration. […]
CO poisoning has long term effects on patients, and one theory is the poisoning of mitochondria leads to generation of increased reactive oxygen species (ROS) through the inhibition of complex IV of the electron transport chain. A model to measure the amount of inhibition produced by CO exposure and quantify it through respiratory rates was developed. In a Clark electrode, the oxygen respiration of isolated mitochondria from rat livers and left ventricle (LV) homogenate was measured, with the addition of the substrates succinate and ADP to measure maximal respiration. […]

[10] = cited from earlier work; remark: listed apart in the source

For `O=S([O-])S(=O)[O-].[Na+].[Na+]` [Dithionite, sodium dithionite], the “LD50 dose in mice” value [1] is given as “about 62.5 mg”, the LD50 [2] is given as 2500 mg/kg body weight and the “predicted human LD50” value [3] is given as 500 mg/kg.

B1: rNgb: recombinant neuroglobin, another type of CO scavenging globin protein (protein, UniProt Q9NPG2 1-151, looked up)
Neuroglobin: MERPEPELIRQSWRAVSRSPLEHGTVLFARLFALEPDLLPLFQYNCRQFSSPEDCLSSPEFLDHIRKVMLVIDAAVTNVEDLSSLEEYLASLGRKHRAVGVKLSSFSTVGESLLYMLEKCLGPAFTPATRAAWSQLYGAVVQAMSRGWDGE
For B1, the “drop of HbCO levels” value (HbCO [4]) was 32.8% and the “rNgb in urinary bladder” value [5] was “millimolar concentrations”.

B2: Equine Myoglobin: wild type equine myoglobin, natural oxygen carrier, used in reduced (deoxy) form as CO scavenger (protein, UniProt P68082 2-154, looked up)
Myoglobin: GLSDGEWQQVLNVWGKVEADIAGHGQEVLIRLFTGHPETLEKFDKFKHLKTEAEMKASEDLKKHGTVVLTALGGILKKKGHHEAELKPLAQSHATKHKIPIKYLEFISDAIIHVLHSKHPGDFGADAQGAMTKALELFRNDIAAKYKELGFQG
modifications: deoxy form
notes: wild type equine myoglobin, natural oxygen carrier, used in reduced (deoxy) form as CO scavenger
In the case of B2, the “HbCO reduced, CO bound by myoglobin” value (HbCO [6]; 100% HbCO, anaerobic, added in a 1:1 ratio) is reported as “more than half”, the HbCO concentration reduced (HbCO [6]; added in deficit: 110.8 μM HbCO versus 85.3 μM deoxy-myoglobin) is reported as “one third” and the survival ([7]; concentration greater than 11 mM, n=10) is reported as 100%. The survival ([7]; concentrations less than 11 mM, n=4) was 0%, the “concentration needed to reverse the hemodynamic collapse induced by severe CO poisoning” value ([7]; infused concentration) was “greater than 11 mM” and the “effect on hemodynamic collapse (heart rate, mean arterial blood pressure) induced by CO” value [7] was “reversal”. The “effect on hemodynamic collapse (heart rate, mean arterial blood pressure) induced by CO” value ([7]; listed as reduced myoglobin) was “restoration”, the mortality ([7]; infusion of 11 mM, n=5) was 0% and the mortality ([7]; infusion of 300 μL of 11.5 mM reduced form) was 0%. For the same molecule, the HbCO level (HbCO [8]; five minutes after infusion) was 65.04%, the HbCO level (HbCO [8]; ten minutes after treatment) was 52.8% and the tolerability of infusion ([9]; retro-orbital injection, 8-12 mM, observed for 48 hours) was “well tolerated”. For the same molecule, the blood chemistries ([9]; serum at 48 hours) was “normal kidney and liver function”, the hematology profile ([9]; whole blood at 48 hours) was “only a slight decline in platelets” and the “increase of respiration from the CO inhibited rate” value (LV homogenate) was 199%. For the same molecule, the “affinity for CO relative to oxygen” value ([10]; CO versus O2) was 60 fold, the Kd ([10]; CO) was 68.8 nM and the kon ([10]; rate of CO binding) was 510000 M⁻¹ s⁻¹. The koff ([10]; rate of CO dissociation) was 0.035 s⁻¹.
